# Test results as given in patent US20180305451A1.
# Biological target: cyno HIDE1 (cyno)
# Assay: FACS, Geo mean ratio of HEK293 cells over-expressing cyno HIDE1 to HEK293 empty vector, antibody 10 ug/ml
# cyno HIDE1 (cyno), sequence (chain, as listed by the source limits assumed, form in doubt): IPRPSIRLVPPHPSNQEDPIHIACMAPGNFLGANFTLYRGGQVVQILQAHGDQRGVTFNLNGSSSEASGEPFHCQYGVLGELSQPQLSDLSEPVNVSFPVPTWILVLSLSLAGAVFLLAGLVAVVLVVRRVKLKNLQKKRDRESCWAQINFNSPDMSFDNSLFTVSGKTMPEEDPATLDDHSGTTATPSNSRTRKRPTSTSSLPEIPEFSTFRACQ
row,Binder,"rMFI OX/EV, 10ug/ml, cHIDE1 (CR)"
1,"αhHIDE1_AbD25754_hIgG1_Ser_mAb (antibody, V domains shown) VH: QVQLVQSGAEVKKPGASVKVSCKASGYTFSGYGMHWVRQAPGQGLEWMGIISPSNGNTNYAQKFQGRVTMTRDTSISTAYMELSRLRSEDTAVYYCAREVYYGLDVWGQGTLVTVSS VL: DIQMTQSPSSLSASVGDRVTITCRASQSISSWLNWYQQKPGKAPQLLIYGASSLQSGVPSRFSGSGSGTDFTLTISSLQPEDFATYYCQQYISIPITFGQGTKVEIK",353
2,"αhHIDE1_AbD25760_hIgG1_Ser_mAb (antibody, V domains shown) VH: QVQLVQSGAEVKKPGSSVKVSCKASGGTFSDYAINWVRQAPGQGLEWMGGIIPNFGTANYAQKFQGRVTITADESTSTAYMELSSLRSEDTAVYYCARGMRSLGGLSYYFDLWGQGTLVTVSS VL: DIQMTQSPSSLSASVGDRVTITCRASQSINSYLNWYQQKPGKAPKLLIYAASSLQSGVPSRFSGSGSGTDFTLTISSLQPEDFATYYCQQYIHYPITFGQGTKVEIK",132
3,"αhHIDE1_AbD25755_hIgG1_Ser_mAb (antibody, V domains shown) VH: QVQLVQSGAEVKKPGSSVKVSCKASGGTFSSYAISWVRQAPGQGLEWMGGIVPKFGTAYYAQKFQGRVTITADESTSTAYMELSSLRSEDTAVYYCARENLVYSAIAIWGQGTLVTVSS VL: DIQMTQSPSSLSASVGDRVTITCRASQDISNWLNWYQQKPGKAPKLLIYGASSLQSGVPSRFSGSGSGTDFTLTISSLQPEDFATYYCQQVTSTPFTFGQGTKVEIK",328
